Assay results: PMC9828152

Biological target: Sp1 (specific protein 1) (UniProt P08047)
Assay: anti-Flag co-IP, Sp1 blot
Settings: reference: Ets1 WT-Flag; sites Y283

Ets1 (human E26 transcription factor 1) (from UniProt P14921) Ets1 Y283F-Flag
binding against the reference: weaker
